Our source for the normalised SPOT signal, Boehringer light units (BLU); mean over the file's lines of this peptide values is article PMC314469, “Protein Interaction Networks by Proteome Peptide Scanning” (PLoS Biology, 2004).

B1: Q9H3T3 825-838 (peptide)
chain: PTGSLRRPLGPHAP
B2: P13498 150-164 (peptide)
chain: PSNPPPRPPAEARK
B3: Q9BZD6 162-175 (peptide)
chain: PSIIFRRPEEAALS
B4: Q00325 36-49 (peptide)
chain: PTGQPRRPRNLAAA
B5: Q06945 55-68 (peptide)
chain: PSGHIKRPMNAFMV
B6: Q9P0U4 228-241 (peptide)
chain: PSESLPRPRRPLPT
B7: Q9H013 786-800 (peptide)
chain: PSQPPPRPPPDYLR
B8: Q8TDP0 823-837 (peptide)
chain: PSPSPARPPGTSPP
B9: Q16671 539-552 (peptide)
chain: PTILPSRPQRSASH
B10: Q00610 58-71 (peptide)
chain: PSNPIRRPISADSA
B11: Q9BVH8 774-788 (peptide)
chain: PTEGPRRPPPRPPS
B12: Q96DL6 53-67 (peptide)
chain: PSLRPLKPPPPPRQ
B13: O60890 702-715 (peptide)
chain: PSFHIKRPAPRPLA
B14: O60342 30-44 (peptide)
chain: PSARPARPPRVRGP
B15: Q9NRR6 185-199 (peptide)
chain: PSLLPPRPPPALSL
B16: Q99700 579-593 (peptide)
chain: PTRPPSRPPSRPSR
B17: O95327 205-218 (peptide)
chain: PTSSPHRPHRLPLA
B18: Q9HBF9 133-146 (peptide)
chain: PSPNFKRPYQRFQW
B19: Q9NXK1 363-376 (peptide)
chain: PSGPPARPSRSMWD
B20: O75916 510-523 (peptide)
chain: PSRFIRRPSTTISP
B21: Q9NZM4 744-758 (peptide)
chain: PTRPPSRPPSRPQS
B22: Q9NTY7 879-893 (peptide)
chain: ASQSPKKPPAKDPL
B23: O95416 4-17 (peptide)
chain: PSDHIKRPMNAFMV
B24: Q9UDM5 470-484 (peptide)
chain: PSQVPPRPPPPRLP
B25: Q96QH2 28-42 (peptide)
chain: PSDLPKKPPKPEFG
B26: Q9UPX1 609-622 (peptide)
chain: PSPALPRPSRSSPG
B27: Q9HBS1 152-165 (peptide)
chain: PSQVPRRPHHTPFQ
B28: Q99755 29-42 (peptide)
chain: AASGIKRPMASEVL
B29: Q99785 97-111 (peptide)
chain: PSRPPRRPPWGRGS
B30: P43681 443-457 (peptide)
chain: PSPGPSRPPHGTQA
B31: Q9UFP0 807-820 (peptide)
chain: PSMDFNRPGKRAPW
B32: O75817 27-40 (peptide)
chain: PSRLPRRPNDIYVN
B33: Q9C098 170-183 (peptide)
chain: PTQELRRPSKSMDK
B34: Q9HC35 168-181 (peptide)
chain: PTKSIKRPSPAEKS
B35: Q13601 2-15 (peptide)
chain: ASPSLERPEKGAGK
B36: Q99700 584-597 (peptide)
chain: PSRPPSRPSRPPSH
B37: Q8WVQ3 114-128 (peptide)
chain: PSPLPPKPPFPGPG
B38: O75592 2352-2365 (peptide)
chain: ASPTPKRPSENMLI

One assay deals with T1, amphyphisin SH3 (AMPH_HUMAN), P49418.
T1 chain: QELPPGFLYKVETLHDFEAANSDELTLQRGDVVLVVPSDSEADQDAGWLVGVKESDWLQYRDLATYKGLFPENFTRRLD
Put plainly: SPOT array.
For B1, the normalised SPOT signal, Boehringer light units (BLU); mean over the file's lines of this peptide was 15.7.

On to B2, for which the normalised SPOT signal, Boehringer light units (BLU); mean over the file's lines of this peptide was determined as 182.

In turn, B3 displayed a normalised SPOT signal, Boehringer light units (BLU); mean over the file's lines of this peptide of 34.1.

Take B4: the normalised SPOT signal, Boehringer light units (BLU); mean over the file's lines of this peptide is 66.

With B5, the normalised SPOT signal, Boehringer light units (BLU); mean over the file's lines of this peptide turned out to be 47.9.

B6 registered a normalised SPOT signal, Boehringer light units (BLU); mean over the file's lines of this peptide of 264.

B7 came in with a normalised SPOT signal, Boehringer light units (BLU); mean over the file's lines of this peptide of 68.9.

Consider B8, for which the normalised SPOT signal, Boehringer light units (BLU); mean over the file's lines of this peptide came out at 31.2.

In turn, B9 had a normalised SPOT signal, Boehringer light units (BLU); mean over the file's lines of this peptide of 17500.

In the case of B10, the normalised SPOT signal, Boehringer light units (BLU); mean over the file's lines of this peptide turned out to be 35.4.

B11: the normalised SPOT signal, Boehringer light units (BLU); mean over the file's lines of this peptide was 3310.

Turning to B12, the normalised SPOT signal, Boehringer light units (BLU); mean over the file's lines of this peptide came to 876.

B13 yielded a normalised SPOT signal, Boehringer light units (BLU); mean over the file's lines of this peptide of 18.2.

Take B14: the normalised SPOT signal, Boehringer light units (BLU); mean over the file's lines of this peptide is 16100.

As to B15, the normalised SPOT signal, Boehringer light units (BLU); mean over the file's lines of this peptide was 82.9.

Take B16: the normalised SPOT signal, Boehringer light units (BLU); mean over the file's lines of this peptide stood at 23500.

Molecule B17 had a normalised SPOT signal, Boehringer light units (BLU); mean over the file's lines of this peptide of 248.

As to B18, the normalised SPOT signal, Boehringer light units (BLU); mean over the file's lines of this peptide worked out at 43.9.

Molecule B19 displayed a normalised SPOT signal, Boehringer light units (BLU); mean over the file's lines of this peptide of 3350.

In the case of B20, the normalised SPOT signal, Boehringer light units (BLU); mean over the file's lines of this peptide was 42.

In the case of B21, the normalised SPOT signal, Boehringer light units (BLU); mean over the file's lines of this peptide is 7120.

The molecule B22 yielded a normalised SPOT signal, Boehringer light units (BLU); mean over the file's lines of this peptide of 57.6.

Molecule B23 had a normalised SPOT signal, Boehringer light units (BLU); mean over the file's lines of this peptide of 16.2.

Regarding B24, the normalised SPOT signal, Boehringer light units (BLU); mean over the file's lines of this peptide came out at 2340.

For the molecule B25, the normalised SPOT signal, Boehringer light units (BLU); mean over the file's lines of this peptide was found to be 16.4.

The molecule B26 yielded a normalised SPOT signal, Boehringer light units (BLU); mean over the file's lines of this peptide of 778.

Take B27: the normalised SPOT signal, Boehringer light units (BLU); mean over the file's lines of this peptide worked out at 43.1.

Molecule B28 registered a normalised SPOT signal, Boehringer light units (BLU); mean over the file's lines of this peptide of 48.8.

B29 came in with a normalised SPOT signal, Boehringer light units (BLU); mean over the file's lines of this peptide of 10100.

B30 registered a normalised SPOT signal, Boehringer light units (BLU); mean over the file's lines of this peptide of 47.

Consider B31, for which the normalised SPOT signal, Boehringer light units (BLU); mean over the file's lines of this peptide was 77.6.

Molecule B32 gave a normalised SPOT signal, Boehringer light units (BLU); mean over the file's lines of this peptide of 38.8.

With B33, the normalised SPOT signal, Boehringer light units (BLU); mean over the file's lines of this peptide turned out to be 48.6.

With B34, the normalised SPOT signal, Boehringer light units (BLU); mean over the file's lines of this peptide is 7.4.

Regarding B35, the normalised SPOT signal, Boehringer light units (BLU); mean over the file's lines of this peptide is 15.

B36 yielded a normalised SPOT signal, Boehringer light units (BLU); mean over the file's lines of this peptide of 11900.

For B37, the normalised SPOT signal, Boehringer light units (BLU); mean over the file's lines of this peptide stood at 43.5.

On to B38, for which the normalised SPOT signal, Boehringer light units (BLU); mean over the file's lines of this peptide turned out to be 43.4.

The target in the next assay is endophilin SH3 (SH3G2_HUMAN), Q99962. Put plainly: SPOT array.
With B1, the normalised SPOT signal, Boehringer light units (BLU); mean over the file's lines of this peptide came to 35.

Consider B2, for which the normalised SPOT signal, Boehringer light units (BLU); mean over the file's lines of this peptide was 991.

With B3, the normalised SPOT signal, Boehringer light units (BLU); mean over the file's lines of this peptide amounted to 48.3.

With B4, the normalised SPOT signal, Boehringer light units (BLU); mean over the file's lines of this peptide turned out to be 254.

B5: the normalised SPOT signal, Boehringer light units (BLU); mean over the file's lines of this peptide came out at 75.8.

B6 returned a normalised SPOT signal, Boehringer light units (BLU); mean over the file's lines of this peptide of 405.

Take B7: the normalised SPOT signal, Boehringer light units (BLU); mean over the file's lines of this peptide is 1790.

For B8, the normalised SPOT signal, Boehringer light units (BLU); mean over the file's lines of this peptide is 67.6.

The molecule B9 displayed a normalised SPOT signal, Boehringer light units (BLU); mean over the file's lines of this peptide of 9690.

The molecule B10 came in with a normalised SPOT signal, Boehringer light units (BLU); mean over the file's lines of this peptide of 47.5.

With B11, the normalised SPOT signal, Boehringer light units (BLU); mean over the file's lines of this peptide was found to be 3050.

B12: the normalised SPOT signal, Boehringer light units (BLU); mean over the file's lines of this peptide was determined as 4590.

The molecule B13 came in with a normalised SPOT signal, Boehringer light units (BLU); mean over the file's lines of this peptide of 61.1.

B14 showed a normalised SPOT signal, Boehringer light units (BLU); mean over the file's lines of this peptide of 21500.

Take B15: the normalised SPOT signal, Boehringer light units (BLU); mean over the file's lines of this peptide was found to be 5800.

B16 gave a normalised SPOT signal, Boehringer light units (BLU); mean over the file's lines of this peptide of 19900.

Consider B17, for which the normalised SPOT signal, Boehringer light units (BLU); mean over the file's lines of this peptide was 166.

B18 had a normalised SPOT signal, Boehringer light units (BLU); mean over the file's lines of this peptide of 71.3.

As for B19, the normalised SPOT signal, Boehringer light units (BLU); mean over the file's lines of this peptide was 2740.

Turning to B20, the normalised SPOT signal, Boehringer light units (BLU); mean over the file's lines of this peptide is 364.

With B21, the normalised SPOT signal, Boehringer light units (BLU); mean over the file's lines of this peptide turned out to be 5850.

Regarding B22, the normalised SPOT signal, Boehringer light units (BLU); mean over the file's lines of this peptide came to 60.6.

B23 had a normalised SPOT signal, Boehringer light units (BLU); mean over the file's lines of this peptide of 85.

B24: the normalised SPOT signal, Boehringer light units (BLU); mean over the file's lines of this peptide is 12300.

B25 came in with a normalised SPOT signal, Boehringer light units (BLU); mean over the file's lines of this peptide of 258.

Take B26: the normalised SPOT signal, Boehringer light units (BLU); mean over the file's lines of this peptide came out at 2060.

As to B27, the normalised SPOT signal, Boehringer light units (BLU); mean over the file's lines of this peptide is 1670.

B28 yielded a normalised SPOT signal, Boehringer light units (BLU); mean over the file's lines of this peptide of 116.

Regarding B29, the normalised SPOT signal, Boehringer light units (BLU); mean over the file's lines of this peptide was determined as 12300.

In the case of B30, the normalised SPOT signal, Boehringer light units (BLU); mean over the file's lines of this peptide was 128.

The molecule B31 yielded a normalised SPOT signal, Boehringer light units (BLU); mean over the file's lines of this peptide of 460.

As to B32, the normalised SPOT signal, Boehringer light units (BLU); mean over the file's lines of this peptide is 41.9.

For the molecule B33, the normalised SPOT signal, Boehringer light units (BLU); mean over the file's lines of this peptide is 35.

With B34, the normalised SPOT signal, Boehringer light units (BLU); mean over the file's lines of this peptide stood at 75.3.

Molecule B35 registered a normalised SPOT signal, Boehringer light units (BLU); mean over the file's lines of this peptide of 175.

B36 gave a normalised SPOT signal, Boehringer light units (BLU); mean over the file's lines of this peptide of 11400.

For B37, the normalised SPOT signal, Boehringer light units (BLU); mean over the file's lines of this peptide is 843.

Molecule B38 gave a normalised SPOT signal, Boehringer light units (BLU); mean over the file's lines of this peptide of 43.3.
